Data taken from US20110256132A1 (published 2011).
Numbering of substitutions follows the chain as printed. Names and notes keep the numbering of the source. Like-named read-outs stand apart in the source and are kept apart here. Each block holds one binder with its values, some of them ahead of it.

What was measured:
[1] = molecular target: T1, mature myostatin (recombinant, dimeric) (mouse polyprotein used for in-house …, UniProt O08689 268-376); experiment: BIAcore, low density myostatin surface, methods as in 4.3
T1 construct: also called GDF-8; recombinant myostatin
T1 sequence: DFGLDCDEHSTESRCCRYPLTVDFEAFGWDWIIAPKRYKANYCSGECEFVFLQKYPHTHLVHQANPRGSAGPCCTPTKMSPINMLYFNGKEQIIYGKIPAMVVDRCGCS

[2] = molecular target: T1, mature myostatin (recombinant, dimeric); experiment: BIAcore, low density myostatin surface, antibody analyte, 1:1 model
Protocol: (§1) Purified H0L0, H1L2 and H2L2 bound recombinant myostatin by BIAcore™ Recombinant myostatin was immobilised at three different densities (low, medium and high, to give R-max values of approximately 35, 120 and 350 RU's respectively) onto a BIAcore™ chip. Antibodies were passed over at 256, 64, 16, 4 and 1 nM. 0 nM antibody was used for double referencing and data was fitted to the 1:1 model.

[3] = molecular target: T1, mature myostatin (recombinant, dimeric); experiment: cell-based or functional assay
[4] = molecular target: T1, mature myostatin (recombinant, dimeric); experiment: cell-based or functional assay; remark: listed apart in the source
[5] = molecular target: T1, mature myostatin (recombinant, dimeric); experiment: BIAcore, medium density myostatin surface, antibody analyte, 1:1 model (poor fits)
Protocol: as §1

[6] = molecular target: T1, mature myostatin (recombinant, dimeric); experiment: cell-based or functional assay; remark: listed apart in the source
[7] = molecular target: T1, mature myostatin (recombinant, dimeric); experiment: BIAcore T100, antibody captured on protein A (C1 chip), myostatin analyte, all curves Bivalent model
Protocol: (§2) The affinity of 10B3 mouse parental and 10B3C for recombinant myostatin was assessed by BIAcore™ (surface plasmon resonance) analysis. Analysis was carried out by the use of a capture surface: anti-mouse IgG was coupled to a C1 chip by primary amine coupling for 10B3 mouse parental; and a protein A surface was created on a C1 chip by primary amine coupling for 10B3 chimera.
(§3) After capture, recombinant myostatin was passed over the surface at 64 nM, 16 nM, 4 nM, 1 nM, 0.25 nM and 0.0625 nM, with a buffer injection (i.e. 0 nM) used for double referencing. There was a regeneration step between each analyte injection, after which the new antibody capture event occurred before the next injection of myostatin. The data was analysed using both the 1:1 model and the Bivalent model inherent to the T100 machines analysis software (see Table 6). Both capture surfaces could be regenerated using 100 mM phosphoric acid, the work was carried out using HBS-EP as the running buffer and using 25° C. as the analysis temperature.

[8] = molecular target: T1, mature myostatin (recombinant, dimeric); experiment: ELISA: inhibition of 2 nM biotinylated myostatin binding to plate-coated ActRIIb, mean IC50
Protocol: Recombinant soluble ActRIIb (R&D Systems 339-RBB) was coated in wells of an ELISA plate at 1 μg/ml in carbonate buffer overnight at 4° C. Plates were blocked (see Block solution above at 2.3) and washed following standard ELISA protocols. In parallel, 2 nM biotinylated myostatin (in-house, as described in 1.1, biotinylated material) was pre-incubated with an antibody dilution series consisting of 10B3, 10B3C, and a negative control (IgG1 isotype control) for 2 hours at 37° C. The biotinylated myostatin:antibody reactions were then added to the ActRIIb coated plate for 1 hour at 37° C. Standard wash procedures were followed prior to addition of 1:1000 diluted streptavidin-HRP conjugate (Dako P0397) and a further 37° C. incubation for 1 hour. Plates were again washed and assayed at absorbance 490 nm following OPD substrate (Sigma) and acid stop solution treatment Inhibition curves and IC50 values for the inhibition of myostatin activity are shown in FIG. 5 and Table 8 respectively.

[9] = molecular target: T1, mature myostatin (recombinant, dimeric); experiment: BIAcore T100, antibody captured on protein A (C1 chip), myostatin analyte, all curves 1:1 model
Protocol: as §2, §3

[10] = molecular target: T1, mature myostatin (recombinant, dimeric); experiment: BIAcore, high density myostatin surface, antibody analyte, 1:1 model (poor fits)
Protocol: as §1

[11] = molecular target: T1, mature myostatin (recombinant, dimeric); experiment: ELISA, plate-coated myostatin (R&D Systems), mean EC50
Protocol: 10B3 and 10B3 chimera (10B3C) bound myostatin (R&D Systems, 788-G8-010/CF) in a sandwich ELISA. Plates were coated with myostatin at 10 ng/well and blocked with Block solution (PBS, 0.1% TWEEN and 1% BSA). Following washing (PBS, 0.1% TWEEN), antibody was incubated at 37° C. for 2 hours over a dilution series and plates washed again prior to incubation at 37° C. for 1 hour with anti-mouse HRP or anti-human HRP (Dako, P0161 & Sigma, A-8400, respectively). Plates were again washed and OPD substrate (Sigma, P9187) added until colourometric reaction occurred and the reaction stopped by the addition of H₂SO₄.

[12] = molecular target: T1, mature myostatin (recombinant, dimeric); experiment: myostatin binding ELISA with purified antibody (made in CHOE1a), 10 ng/well recombinant myostatin coated, anti-human kappa HRP, A490 (Examples 4.1, 4.2)
Protocol: The myostatin binding ELISA was carried out approximately according to this protocol. A 96-well ELISA plate was coated at 4° C. overnight with 10 ng/well recombinant myostatin. This plate was then washed 3-times in wash buffer (PBS, 0.1% Tween-20). The wells were blocked for 1 hour at room temperature with block solution (PBS, 0.1% Tween-20+1% bovine serum albumin [BSA]), before washing 3-times in wash buffer. Antibodies were then titrated out to a suitable concentration range (approximately 100 to 0.001 μg/ml), added to the plate and incubated for 1 hour at room temperature. The plate was then washed 3-times in wash buffer. An anti-mouse IgG HRP-conjugated antibody (P0260 by Dako, this reagent was used according to the manufacturer's instructions) was used to detect binding of mouse antibodies, such as 10B3. An anti-human kappa light chain HRP-conjugated antibody (A7164 by Sigma Aldridge, this reagent was used according to the manufacturer's instructions) was used to detect binding of humanized or chimeric antibodies, such as 10B3 chimera or H0L0. The plate was then washed 3-times in wash buffer and developed with an OPD substrate (from Sigma, used according to the manufacturer's instructions) and read at 490 nm on a plate reader.

[13] = molecular target: T1, mature myostatin (recombinant, dimeric); experiment: cell-based or functional assay; remark: listed apart in the source
[14] = molecular target: T1, mature myostatin (recombinant, dimeric); experiment: cell-based or functional assay; remark: listed apart in the source
[15] = molecular target: T1, mature myostatin (recombinant, dimeric); experiment: cell-based or functional assay; remark: listed apart in the source
[16] = molecular target: T1, mature myostatin (recombinant, dimeric); experiment: myostatin binding ELISA after 48 h at 37 C in 1% ammonium bicarbonate pH 9.0 (Examples 5.2, 4.2), A490
[17] = molecular target: T1, mature myostatin (recombinant, dimeric); experiment: FORTEbio bio-layer interferometry, myostatin amine-coupled to sensor, 20 nM antibody, 1:1 fit
Protocol: The affinity of 10B3 mouse parental and H2L2-C91S developability variant for recombinant myostatin was also assessed by FORTEbio™ (bio-layer inferometry) analysis. FORTEbio™ analyses were carried out by antigen capture. Myostatin (in-house, see above at 1.1) was coupled onto amine reactive biosensors by primary amine coupling in accordance with the manufacturer's instructions. Antibodies were then captured onto this surface at 20 nM concentrations. The data was analysed using the evaluation software inherent in the machine and the data analysed using 1:1 fit (see Table 16). Due to the limited number of myostatin molecules bound to the sensor surface and the low antibody concentration, avidity effects are reduced, enabling a more accurate measure of affinity compared to the Biacore analyses. […] However, due to the nature of the binding of the antibodies to myostatin, these values are mainly used for ranking purposes, and the affinity may not be representative of the affinity in vivo.

[18] = molecular target: T1, mature myostatin (recombinant, dimeric); experiment: ProteOn XPR36, antibody captured from supernatant, myostatin analyte
Protocol: The initial kinetic analyses for the CDRH3 screen were carried out on the ProteOn XPR36 (Biorad Laboratories). For residues R95 to P100_B, analysis was carried out using a Protein A/G capture surface (Pierce 21186) was used and for residues A100_C to V102, an anti-human IgG surface was used (Biacore/GE Healthcare BR-1008-39). Both capture surfaces were prepared similarly using primary amine coupling to immobilise the capture molecule on a GLM chip (Biorad Laboratories 176-5012). CDRH3 variants were captured directly on either the Protein A/G or anti-human IgG surface (depending on the residue mutated) from tissue culture supernatants from transient transfections expressing the particular variant of interest. After capture, in-house recombinant human myostatin (see 1.1 above) was used as an analyte at 256 nM, 32 nM, 4 nM, 0.5 nM and 0.0625 nM, with a buffer injection alone (i.e. 0 nM) used to double reference the binding curves. Following the myostatin binding event, the capture surfaces were regenerated: for the Protein A/G capture surface, 100 mM phosphoric acid was used to regenerate the capture surface; and for the anti-human IgG surface, 3M MgCl₂ was used to regenerate the capture surface; the regeneration removed the previously captured antibody ready for another cycle of capture and binding analysis. […]

[19] = molecular target: T1, mature myostatin (recombinant, dimeric); experiment: myostatin binding ELISA after 48 h at 37 C in PBS (Examples 5.2, 4.2), A490
[20] = molecular target: T1, mature myostatin (recombinant, dimeric); experiment: BIAcore, low density myostatin surface

B2: H2L2 C91S (H2L2-C91S) (antibody, human IgG1, kappa, V domains shown)
VH: QVQLVQSGAEVKKPGASVKVSCKASGYSFTGYFMHWVRQAPGQGLEWMGNIYPYNGVSNYNQRFKARVTMTTDTSTSTAYMELRSLRSDDTAVYYCARRYYYGTGPADWYFDVWGQGTLVTVSS
VL: DIQMTQSPSSLSASVGDRVTITCKASQDINSYLSWFQQKPGKAPKSLIYRANRLVDGVPSKFSGSGSGTDYTLTISSLQPEDFATYYCLQSDEFPLTFGQGTKLEIKR
notes: Humanised, human IgG1/kappa; also called base molecule; base H2L2-C91S
Kd [1]: 16.6 nM | Mean IC50, A204 in vitro activity assay [15]: 4.08 nM | EC50 (read off the curve) [16]: ~1 nM | Kd [17]: 0.073 nM | koff [17]: 2.99e-05 s⁻¹ | kon [17]: 410000 M⁻¹ s⁻¹ | Mean IC50, A204 in vitro activity assay (5 nM myostatin) [4]: 5.14 nM | Mean IC50, A204 in vitro activity assay [6]: 9.26 nM

B4: H2L2 N54Q (H2L2-N54Q) (antibody, human IgG1, kappa, V domains shown)
VH: B2 VH with N55Q
VL: B2 VL with S91C
EC50 (read off the curve) [19]: ~1 nM | Kd [1]: 28 nM | fold loss in affinity against H2L2 [20]: ≥ 2 fold | Mean IC50, A204 in vitro activity assay [6]: 12 nM

More lines, now with the values ahead:

Kd [1]: 4.44 nM | Kd [2]: 1.61 nM | koff [2]: 0.000967 s⁻¹ | kon [2]: 599000 M⁻¹ s⁻¹ | Mean IC50, A204 in vitro activity assay [3]: 5.1 nM | Mean IC50, A204 in vitro activity assay (5 nM myostatin) [4]: 3.53 nM | Kd [5]: 1.35 nM | koff [5]: 0.000559 s⁻¹ | kon [5]: 413000 M⁻¹ s⁻¹ | Mean IC50, A204 in vitro activity assay [6]: 8.45 nM | Kd [7]: 3.6 nM | IC50 [8]: 0.138 µg/mL | Kd [9]: 0.088 nM | Kd [10]: 0.882 nM | koff [10]: 0.000218 s⁻¹ | kon [10]: 248000 M⁻¹ s⁻¹ | EC50 [11]: 0.049 µg/mL | EC50 (read off the curve) [12]: ~0.1 µg/mL | Mean IC50, myostatin responsive reporter gene assay (A204 cells, luciferase) [13]: 6.2 nM | Mean IC50, A204 in vitro activity assay [14]: 3.57 nM
B1: 10B3 chimera (antibody, human IgG1, kappa, V domains shown)
VH: EVQLQQSGPELVKPGASVKISCKASGYSFTGYFMHWVKQSHGNILDWIGNIYPYNGVSNYNQRFKAKATLTVDKSSSTAYMELRSLTSEDSAVYYCARRYYYGTGPADWYFDVWGTGTLVTVSS
VL: DIKMTQSPSSMYASLRERVTITCKASQDINSYLSWFQQKPGKSPKTLIYRANRLVDGVPSRFSGSGSGQDYSLTISSLEYEDMGIYYCLQCDEFPLTFGAGTKLELKR
notes: Mouse variable regions on human IgG1/kappa wild type constant regions; also called HCLC; HcLc

binding result [18]: binds
B3: CDRH3 variant F100G_S of H2L2-C91S (antibody, human IgG1, kappa, V domains shown)
VH: B2 VH with F111S
VL: B2 VL
notes: tested only in the supernatant screen
